Reference: the DeepSol protein solubility set

Experiment: soluble on expression in E. coli; label from the status in PepcDB or PDB records

Soluble on expression in E. coli, soluble:
MSLTDRIFINAVDAGGQPIHLVVRDGRFIAIGADCAAAPGAETIDLDGRVVLPGFVDGHIHLDKSFVGDRWVPHEPVGTLRERLAVEKRQLAAAPPIVERANALIAQAAAFGTVAMRSHVDVDATTGLSNLQAVMAAREQWRGIVDIELVAFPQAGVVTCPGTAEILDVAVREGADVVGGIDPTTLDGDADGQLDIVFGIAEKRGAKIDIHLHEPGETGIAQLLRIAARTRAAGLGGRVNVSHAYALGQVSDGDVQRTAAALAEAGVSILTNAPGDCAFPPVQALRDAGVHVFAGNDNIRDAWWPYGNGDMLQRAMMVGYRSGFYTDEALGIALDMATHAGARVIGKDNYGIAVGRDATFVAVRAPNAAAAVAGVPAERWVFRRGESDTGAPFAPALRFTREGHHHHHH
MSLHQFQQDNQYFIFNFDRTFEQATEFFQAEFWQKQERVIGSAKGRGITYFLQTEDWFGVNCALRHYYRGGLWGKLNKDRYRFSALETTRSFAEFHLLQRLYEAGLPVPKPIAARIQKGKLGICYQADILTEKIENAQDLTALLQTQTLPKETWMQIGRLIRKLHDLQICHTDLNAHNILLQQTEQGQKCWLLDFDKCGEKSADFWKVQNLNRLKRSFEKEVGRMNIQFTEQNWADLTSAYHQEGHHHHHH
GAMMPVPNPTMPVKGAGTTLWVYKGSGDPYANPLSDVDWSRLAKVKDLTPGELTAESYDDSYLDDEDADWTATGQGQKSAGDTSFTLAWMPGEQGQQALLAWFNEGDTRAYKIRFPNGTVDVFRGWVSSIGKAVTAKEVITRTVKVTNVGRPSMAE
MYPSIKETMRVQLSMEGSVNYHAFKCTGKGEGKPYEGTQSLNITITEGGPLPFAFDILSHAFQYGIKVFAKYPKEIPDFFKQSLPGGFSWERVSTYEDGGVLSATQETSLQGDCIICKVKVLGTNFPANGPVMQKKTCGWEPSTETVIPRDGGLLLRDTPALMLADGGHLSCFMETTYKSKKEVKLPELHFHHLRMEKLNISDDWKTVEQHESVVASYSQVPSKLGHN
MSKIRVLSVDDSALMRQIMTEIINSHSDMEMVATAPDPLVARDLIKKFNPDVLTLDVEMPRMDGLDFLEKLMRLRPMPVVMVSSLTGKGSEVTLRALELGAIDFVTKPQLGIREGMLAYSEMIAEKVRTAARARIAAHKPMAAPTTLKAGPLLSSEKLIAIGASTGGTEAIRHVLQPLPLSSPAVIITQHMPPGFTRSFAERLNKLCQISVKEAEDGERVLPGHAYIAPGDKHMELARSGANYQIKIHDGPPVNRHRPSVDVLFHSVAKHAGRNAVGVILTGMGNDGAAGMLAMYQAGAWTIAQNEASCVVFGMPREAINMGGVSEVVDLSQVSQQMLAKISAGQAIRI
MTAESPTIRLERYSERHVEGLTALYNDPAVARQVLQMPYQSVEQRRKRLHDSADDDRLLILVALHQGDVIGSASLEQHPRIRRSHSGSIGMGVAVAWQGKGVGSRLLGELLDIADNWMNLRRVELTVYTDNAPALALYRKFGFETEGEMRDYAVRDGRFVDVYSMARLRRVEGRVGE

Soluble on expression in E. coli, not soluble:
MSLSPEGVNGNRCSESFPLLEKYRIGKVIGDGNFAVVKECVDRYTGKEFALKIIDKAKCCGKEHLIENEVSILRRVKHPNIIMLVEEMETATDLFLVMELVKGGDLFDAITSSTKYTERDGSAMVYNLANALRYLHSLSIVHRDIKPENLLVCEYPDGTKSLKLGDFGLATVVEGPLYTVCGTPTYVAPEIIAETGYGLKVDVWAAGVITYILLCGFPPFRSENNLQEDLFDQILAGKLEFPAPYWDNITDSAKELISQMLQVNVEARCTAGEILSHPWVSDDASQENNMQAEVTGKLKQHFNNALPKQNSTTTGVSVIMNTALDKEGQIFCSKLCQDSSRPSREGHHHHHH
MPAFRMPPSTKVEYTSFGTKLSGAMKKIGLLSDTHGYIDEKYRIHFADCDEIWHAGDIGSVTVADYLSGLAPLRAVYGNIDGQDIRLQYPEVLRFCVEEVKVFMTHIGGYPGRYEPRIYRMLVQNPPRLFVCGHSHILKAMYDKKLDMLHLNPGAAGKYGFHAVRTLMRFVIDGRDIRDLQVIELADR
MRGRPIELEPWQQFAFACILGFKVKATGRRKYTSAFIEVPRKNAKSTTAAILANWFLIMENGQQDIYTAAVSRDQARIVFDNARQMCLLSRPLRRRVNIQAHKVIHPKSNSLLKPLAAKAATIEGTNPSLSIVDEYHLHPDNGVYSALELGMGARPEGLLFAITTSGSNVVSACKQHYDYCCQILDGEEVNDSIFVLIYELDDENEVDDPAMWIKANPNIDVSVDREKLASTIQKARGIPSQWVEMMTKRFNIWCQGTTPWMGNGAWAECAGTFTEEDLHGQECYAGLDLSSTSDISSVCYAFPVGKTIMLISRHYLPEFQLQNPANKNRAVYRQWAKAGWIRTTPGDCIDYDRIRDDIMQDAEKFNIRLVGFDTWNATHLRTQLQGAGFEVEPFPQTYLRFSPAAKSFEVFVNRRVIVHRGDPVLSWSMSNVVMQSDANANIKPNKKKSPNKIDPSVAALMAFGTFQAEHEDFAFDISDSHRQKLEEFSGV
MGSDKIHHHHHHMENTIYLSSAYLAPVEYYTKLFACEKAYVEQYDNYVKQTYRNRCVIAAADGPLALTIPTEKSGTPKCLMKDVRISDHGNWRHIHWNALVAAYRNSPFFEYYADDFHVFYEKKYAFLWDYNQEICSLVCDLIDIHPHMEGTTEYCMEFVPGEVDFRETIHPKRDWREADADFCPKPYYQVFDAKYGFLPNLSIADLLFNMGPESLIVLRDSVKGINHKE
MGSDKIHHHHHHMAIETILVINKSGGLIYQRNFTNDEQKLNSNEYLILASTLHGVFAIASQLTPKALQLTQQTNIENTIPYIPYVGMSSNRSDTRNGGGNNNKHTNNEKLGSFKGDDFFKEPFTNWNKSGLRQLCTDQFTMFIYQTLTGLKFVAISSSVMPQRQPTIATTDKPDRPKSTSNLAIQIADNFLRKVYCLYSDYVMKDPSYSMEMPIRSNLFDEKVKKMVENLQ
MGSDKIHHHHHHMTIRYTFGGDEFIFVEISESMSLDAFFKGTAITRELRRRNVPGVTEICPANASYQVRYDPDVIEPDTLLALLKTIEAEVGEAALNIDTRIVEVPVLYNDPWTHETLMRFRERHQAPESTDLEYAARVNGKRDIDEFIAAHAGSPWFVSMVGFVAGLPFMYQMVERERQLQVPKYLRPRTDTPKLTVGHGGCFGCIYSVRGAGGYQMFGVTPAPIFDPAQRLDYLRDFMVFFRPGDIVKFKPIDRAEYDAAVAAVEAGTFTLRVKPVRFALEAFLRDPHAYNRSLVEVLDAN
MAYEDLREFIGRLEDKGELARVKHEVSPILEMSEVADRTVKAGGKALLFERPKGYDIPVFMNAFGTERRMKLALEVERLEEIGERLLSALEFRPSSFMDALKGVGMLKDFMSFIPKKTGKAPCKEVVAESLDKFPILKCWPKDAGRFITFPVVITKDPETGEMNAGMYRMQVFDGKTTGMHWQIHKHGAEHFRKMAEKGGGKIEVAVAIGVDPATLYAATAPLPSGISEFMFAGFIRKERLKVTECETVDLLVPANAEIILEGYVRVDEMRVEGPFGDHTGYYTPPEPYPVFHITHITHRENPIYHATVVGKPPMEDAWLGKATERIFLPILRMMHPEIVDINLPVEGAFHNLAIVSIKKRYPGQAKKVMYAIWGTGMLSLTKIVVVVDDDVNVHDMREVVWAVTSRFDPARDVVILPPSPTDSLDHSAYIPNLAGKLGIDATKKWRDEGYEREWPDVVEMDAETKRKVDAIWNEIRNMVLAAALEHHHHHH
MGSDKIHHHHHHMSVKILFKNATVFPITSRPFKGDVLVSNGKVEKVGENIEDPDAEIVDLTGKFLFPGFVDAHSHIGLFEEGVGYYYSDGNEATDPVTPHVKALDGFNPQDPAIERALAGGVTSVMIVPGSANPVGGQGSVIKFRSIIVEECIVKDPAGLKMAFGENPKRVYGERKQTPSTRMGTAGVIRDYFTKVKNYMKKKELAQKEGKEFTETDLKMEVGEMVLRKKIPARMHAHRADDILTAIRIAEEFGFNLVIEHGTEAYKISKVLAEKKIPVVVGPLLTFRTKLELKDLTMETIAKLLKDGVLIALMCDHPVIPLEFATVQAATAMRYGAKEEDLLKILTVNPAKILGLEDRIGSIEPGKDADLVVWSGHPFDMKSVVERVYIDGVEVFRR
MGSDKIHHHHHHMSKENIFDALKSGKIDYVRVEFVDILGNTKGRSLRRAEFENVINDNKGVDYPESLALMDYKDRPIKSRYEDIIAIPDLNTFVAIPYLERTARVLSFLAQPDGLPYPYCSRSILNKAIEKLKEAGYTLQVSFEPTFYLLNSALNPADYSKAFSLEGLLEQQNFLKLLIKYLEEIDIKVETINKHYGPGQYEVKLSQKPVLEAADSLISSREVIRDTAKMNNVIATFMPKPFKDYPSSSMDITLSLQTVDGKDIMYDPNDSKGIGLSKIAYNFISGILEHLPSILSIAAPTVNSYKRFKEVVTPNMPGIGSERHYIVRLPSYYKDTHQVEFRLADPLANPYILLASMIYAGLDGIERNLMANVNEYYGTLPQTLKESLSRLENDTYMKYNLGQDLISIYINIKNIEIEEYESQITEWERDYYLKAGW
MNPILAMLKENNISNEQINELFQTLTQNPLAAMATLAQLGLPQDKMQMVLAQVMQNPALIKQAVEELGLDFAKVEAAKAKLQQ
MYNGIGLQTARGSGTNGYVQSNLSHLMQARRKIEYNGEDDLRKMEAELNRKPNEEIMDHNRKRQIEVKCTEFEMLLEDKGLDDEDIERKVGEYRKNLLKQLESGELNVDEELSTKESHARRRAAANNRDKMRNALGLGEDYVPGSSMAKMNKSDVVGAAMESELPQKDDKEKLLETLRLHRKSKKKQESSSSSSSSSSSSESSSEDEKHRKDRKKKEKKQKLKEMEKRREKLRQKERELLAVSDKVKKEEPAESSDEEDSRKDQRKPREDRRRSVERQDQREDRRDRRRSPEDPRERRRSPEDRTVRRRSPERRRQQRSPSVERRKSPQRRDERRRRHDSSENERRSTATASKKSRMDELEVKQEPPSDSEDYIAKTNLAPIRVEKSAEKVEKSRKSSSESSSGSSDSDSSSDSSSSSDSSSDSE
MLDKIRFTVLLDRPFYQPGQTIQGHVVCEPHHPLEIDCVEGRLHGEIQYFQQLPPNHNRNGSPLPPSKTRVLIDEKAQLWKYQTVSEMLGLDVFYDENQNRHFSSESASASSSSLFTTAATFPIQIELPHFAPPSFYCPGSPVSIRFTLEIQLYNQGFKIASHEENLVVLNYESIKRQVTPKPVNFQKTFNFPKERSISLEMLLPTDVFTTTARLENCITICNRWKQSLKYVHLNIVRRISALNQNNEVIDTVKIDTTGVGLPSKTKIAVGETYSFRPTFNVPALPPNIHVNGLFKTEYSLKVTIGRAHNFVLASYEVPITIVTMDQSSRRSMQKEDILVDISASNNTLNNLPVDLLA
MITPKGTHDAVAKFQKTDLHQDLDYIVLQQRRTQLETLINERESFVKNLCSLFHKIQNTKNYQEFVDVLAENRDLLREIFTVENGFQKQKWISNDDIPQIDWDKFALDINAYIAENDQLLALYEDGLL
MRRFLTLTVALGFLSACEVSDPGPVAPLPKVPDSPPMSASAAQSAFASVSARVRPVAVRECQQRTQGANCDFKIQIDPDPKAPVNAYQTVGKNGQPLIIFTRSMIATARNADELAFVMGHEAAHHIRGHLARQNASAIAGAVILGGLVGLAGGGASTIDAATQIGASVGARTYSKEYELEADELGTVITHKAGYNPLVGAHFFSRIPDPGDRFLGSHPPNAARIQTVQRTAGSLGLTQLEHHHHHH
MNGESDCATCTISGAKLGNALGAIWTFVHTMEQGDVVLVRHGAWLSIGIIGPYRYVKHLDNDIYGFCHQRSVEWKIINENVRLYNEKVHETLRHPGVVTKSKYTVHELQLGIEW
MKTVLAFGDSLTWGADPATGLRHPVEHRWPDVLEAELAGKAKVHPEGLGGRTTCYDDHAGPACRNGARALEVALSCHMPLDLVIIMLGTNDIKPVHGGRAEAAVSGMRRLAQIVETFIYKPREAVPKLLIVAPPPCVAGPGGEPAGGRDIEQS
